Experimental data: patent US20190233486A1 (ACCELERON PHARMA, published 2019)

Tests used:
activin A = target: T1, activin A (UniProt P08476 311-426); test: Biacore SPR; ligand coupled to the chip, receptor-Fc flowed over (data reproduced from WO2006/012627)
T1 construct: also called ActA
T1 sequence (looked up): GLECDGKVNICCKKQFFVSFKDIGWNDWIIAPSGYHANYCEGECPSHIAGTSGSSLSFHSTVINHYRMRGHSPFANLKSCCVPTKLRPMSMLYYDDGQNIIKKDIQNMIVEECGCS

GDF11 = target: T2, GDF11 (UniProt O95390 299-407); test: as above
T2 construct: also called growth and differentiation factor-11; BMP11
T2 sequence (looked up): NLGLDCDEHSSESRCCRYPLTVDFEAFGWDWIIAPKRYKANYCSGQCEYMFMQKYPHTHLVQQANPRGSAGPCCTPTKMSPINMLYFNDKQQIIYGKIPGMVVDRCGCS

Kd (activin A): 180 nM
Kd (GDF11): 260 nM
B1: Soluble ActRIIB-Fc WT (64A) (Fc fusion, not shown: a dimerising Fc or GST)
chain: GRGEAETRECIYYNANWELERTNQSGLERCEGEQDKRLHCYASWANSSGTIELVKKGCWLDDFNCYDRQECVATEENPQVYFCCCEGNFCNERFTHLPEA
notes: Data reproduced from WO2006/012627
